Reference: patent US7414023 (dated 2008)
Bridge positions count the residues as written; N and C are the ends. Ends that are not written are not given here.

T1: cathepsin G (human, UniProt P08311)
T1 chain: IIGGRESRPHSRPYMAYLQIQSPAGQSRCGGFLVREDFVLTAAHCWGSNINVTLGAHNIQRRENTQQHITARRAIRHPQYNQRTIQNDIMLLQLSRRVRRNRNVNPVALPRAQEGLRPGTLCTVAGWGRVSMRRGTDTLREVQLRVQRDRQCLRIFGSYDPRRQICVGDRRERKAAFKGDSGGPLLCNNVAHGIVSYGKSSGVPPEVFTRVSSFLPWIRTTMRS


Legend:
[1] = target: T2, PSA (human, UniProt P07288); assay: SPR
[2] = target: hK2 (human, UniProt P20151); assay: other, IFMA
hK2, sequence (P20151 25-261): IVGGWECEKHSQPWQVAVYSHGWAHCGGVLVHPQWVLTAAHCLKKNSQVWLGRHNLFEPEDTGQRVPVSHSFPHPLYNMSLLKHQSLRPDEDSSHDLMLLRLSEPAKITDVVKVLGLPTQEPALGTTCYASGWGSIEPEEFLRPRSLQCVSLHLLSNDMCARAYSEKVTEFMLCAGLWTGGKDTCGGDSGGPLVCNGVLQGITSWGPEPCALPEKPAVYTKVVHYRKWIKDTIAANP

[3] = target: PSA-API complex (human, UniProt P07288); assay: other, IFMA
[4] = target: T1, cathepsin G; assay: other, IFMA
[5] = target: trypsin; assay: other, IFMA
[6] = target: PSA-ACT complex (human, UniProt P07288); assay: other, IFMA
[7] = target: T2, PSA; assay: SPR, 0 uM Zn2+
[8] = target: T2, PSA; assay: SPR, 1 uM Zn2+
[9] = target: T2, PSA; assay: SPR, 30 uM Zn2+
[10] = target: T2, PSA; assay: SPR, 10 uM Zn2+
[11] = target: T2, PSA; assay: competition, IFMA with free PSA
[12] = target: T2, PSA; assay: other, IFMA

| Binder | Kd [1] | binding result [2] | binding result [3] | binding result [4] | binding result [5] | binding result [6] | Kd [7] | Kd [8] | Kd [9] | Kd [10] | IC50 [11] | binding result [12] |
| --- | --- | --- | --- | --- | --- | --- | --- | --- | --- | --- | --- | --- |
| CVFTSDYAFC (disulfide 1-10 (inferred); also: GST fusion, site not given here) [GST-A-1] | 7800 nM | no binding | no binding | no binding | no binding | no binding | 7800 nM | 2600 nM | 1000 nM | 1400 nM | 3.3 nM | – |
| CLSTCAQSCRISC (also: GST fusion, disulfide pairing not given here) [GST-D-1] | – | – | – | – | – | – | – | – | – | – | – | no binding |
| CVAYCIEHHCWTC (disulfide 1-13, 5-10; also: GST fusion, site not given here) [GST-C-4] | – | no binding | no binding | no binding | no binding | no binding | – | – | 860 nM | – | 0.7 nM | – |
| CVFAHNYDYLVC (disulfide 1-12 (inferred); also: GST fusion, site not given here) [GST-B-2] | 3500 nM | no binding | no binding | no binding | no binding | no binding | 3500 nM | 3100 nM | 800 nM | 600 nM | 1 nM | – |
